In US20100124555A1, “Compositions and Methods for Treating Pancreatic Tumors” (UNIVERSITE DE LA MEDITERRANEE, priority 2007, published 2010):

Experiments:
[1] = system: SOJ-6 cells; test: Nuclear staining with DAPI (nuclear fragmentation); assay type: cell-based, human; settings: RPMI induced no apoptosis
Experimental: After treatment with mAb16D10 or cisplatin, cells were washed in ice-cold PBS, fixed and permeablized with 70% ethanol for 5 min at […] and staining with diluted 1/1000 DAPI solution in PBS for 1 min at room temperature. The cells were then washed with PBS. The nuclear morphology of cells was examined by fluorescence microscopy.

[2] = system: p53, cyclin D1, GSK-3β in SOJ-6 cells; test: Western blot of cell cycle regulatory proteins; assay type: cell-based, human
Experimental: SOJ-6 cells were grown in 6-well culture plates in RPMI 1640 medium with 10% FCS. At subconfluency, the medium was removed and replaced for 24 hours by fresh RPMI medium with 10% inactivated FCS. SOJ-6 cells were then incubated with mAb16D10 or Cisplatin for 24 hours. At the end of incubation, cells were washed three times with ice-cold PBS (without […] and Mg^++) harvested and pelleted by centrifugation. Pellets were washed twice and lysed at 4° C. in 0.5 ml of lysis buffer (10 mM Tris-HCl pH 7.4, 150 mM NaCl, 1% Triton X-100, 1 mM benzamidine and phosphatase inhibitors). After lysis, homogenates were clarified by centrifugation at 10,000 g for 10 min at 4° C. An aliquot was saved for protein determination using the bicinchoninic acid assay (Pierce, Rockford, Ill.). Proteins (50 μg/lane) in reducing SDS buffer were separated onto 10, 12, or 15% polyacrylamide with 0.1% SDS (according to the molecular weight range of proteins to be separated). After electrophoretic migration, proteins were silver stained. Alternatively, proteins were transferred onto nitrocellulose membranes using a Mini Transblot electrophoretic cell (BioRad, Hercule, Oreg.), and transferred proteins were immunodetected by using appropriate primary and secondary antibodies. After washes, membranes were developed with a chemoluminescent substrate according to the manufacturer's instructions (Roche Diagnostics, Switzerland). In each experiment, a control was included by omitting primary antibodies or by using a non-immune serum.
The expression of different cell cycle regulatory proteins, specifically p53 and cyclin D1, was next analyzed. […] Since cyclin D1 expression may be directly regulated by GSK-3β (Diehl et al., 1998 Genes Dev. 12(22):3499-511), we next focused on the expression level of this kinase in SOJ-6 cells once challenged with mAb16D10.

[3] = system: living cells in culture; test: Pulse-chase confocal microscopy internalization; assay type: cell-based; settings: pulse 30 min at 4° C.; chase 2 h at 37° C.
Experimental: A pulse-chase experiment using confocal microscopy was used to assess the interaction of the IgM 16D10 antibody with living cells in culture. (Pulse: 30 min at 4° C.; Chase: 0 or 2 h at 37° C. in culture medium.) It was observed that virtually all of the mAb was internalized within 2 h. A fraction of the mAbs co-localized with LAMP1.

B1: 16D10: IgM monoclonal antibody recognizing FAPP/BSDL; producing cells deposited with the CNCM under the number I-3188 (antibody, listed as Mus musculus, V domains shown)
VH: QVQLQQSDAELVKPGASVKISCKASGYTFTDHAIHWVKQKPEQGLEWIGYISPGNDVIKFNEKFKGKATLTADKSSSTAYMQLNSLTSEDSAVYFCKRSEGGVFDYWGQGTTLTVS
VL: NIMMTQSPSSLAVSAGEKVTMSCKSSQSVLYSSNQKNFLAWYQQKPGQSPKLLIYWASTRESGVPDRFTGSGSGTDFTLTISSVQAEDLAVYYCHQYLSSYTFGGGTKLEIK
In the case of B1, the “apoptosis observed by DAPI staining (nuclear fragmentation)” value [1] is reported as “significant levels of apoptosis”, the “expression of cyclin D1” value [2] is reported as “decreased that of cyclin D1” and the “expression of p53” value [2] is reported as “increased the expression of p53”. For the same molecule, the “expression of total GSK-3β” value [2] was “constant”, the “phospho-GSK-3β (inactive form)” value [2] was “a decrease in the phospho-GSK-3β” and the “fraction of mAb internalized” value [3] was “virtually all”.
